Paper PMC3783020 (Cellular microbiology, 2012)

Legend:
[1] = molecular target: MBP-CHMP4B_(ΔC-Alix) (human); experiment: SPR
[2] = molecular target: MBP-CHMP4B_(ΔC-Alix) (human); experiment: SPR; remark: listed apart in the source
[3] = molecular target: CHMP2B-His6 (full length) (human, UniProt Q9UQN3 1-213); experiment: SPR
[4] = molecular target: T1, CHMP3 full length (residues 1-222) (human, UniProt Q9Y3E7 1-222); experiment: SPR
T1 sequence (looked up): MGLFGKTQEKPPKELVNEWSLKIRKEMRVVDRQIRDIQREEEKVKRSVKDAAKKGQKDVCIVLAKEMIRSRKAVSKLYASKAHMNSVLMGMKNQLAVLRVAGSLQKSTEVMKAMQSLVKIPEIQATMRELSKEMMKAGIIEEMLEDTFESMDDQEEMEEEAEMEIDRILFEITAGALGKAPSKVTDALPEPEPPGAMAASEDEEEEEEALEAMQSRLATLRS

[5] = molecular target: T1, CHMP3 full length (residues 1-222); experiment: cryo-EM structure

Sequence of CHMP2B-His6 (full length) (human, UniProt Q9UQN3 1-213) (Q9UQN3 whole entry, the tested form may be a part): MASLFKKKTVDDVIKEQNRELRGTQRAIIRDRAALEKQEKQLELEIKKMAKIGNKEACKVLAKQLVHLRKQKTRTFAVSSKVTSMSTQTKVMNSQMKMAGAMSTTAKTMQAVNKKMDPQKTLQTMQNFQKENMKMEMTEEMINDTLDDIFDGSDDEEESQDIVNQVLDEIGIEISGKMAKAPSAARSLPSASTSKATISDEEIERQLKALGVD

“CHMP2B-His6 (full length) (from UniProt Q9UQN3 1-213) (natural protein)” was tested, and the Kd [1] was 560 nM.

B1: CHMP3 full length (residues 1-222) (natural protein)
chain: T1 sequence (looked up)
In the case of B1, the KD1 (at low concentrations) [2] is reported as 0.15 µM.

B2: CHMP3ΔC (residues 9-183) (domain or fragment, human, UniProt Q9Y3E7 9-183, looked up)
chain: EKPPKELVNEWSLKIRKEMRVVDRQIRDIQREEEKVKRSVKDAAKKGQKDVCIVLAKEMIRSRKAVSKLYASKAHMNSVLMGMKNQLAVLRVAGSLQKSTEVMKAMQSLVKIPEIQATMRELSKEMMKAGIIEEMLEDTFESMDDQEEMEEEAEMEIDRILFEITAGALGKAPSK
B2 gave a Kd [3] of 1400 nM.

B3: MBP-CHMP2AΔC (residues 9-161) (domain or fragment, human, UniProt O43633 9-161, looked up)
chain: KTPEELLRQNQRALNRAMRELDRERQKLETQEKKIIADIKKMAKQGQMDAVRIMAKDLVRTRRYVRKFVLMRANIQAVSLKIQTLKSNNSMAQAMKGVTKAMGTMNRQLKLPQIQKIMMEFERQAEIMDMKEEMMNDAIDDAMGDEEDEEESD
modifications: biotin on lysines (biotin sulfo-LC-NHS, molar ratio 1:5) where it was immobilised; not biotinylated as analyte
With B3 the Kd [4] was 3.2 µM.

B4: CHMP2AΔC (residues 9-161), MBP removed (domain or fragment, human, UniProt O43633 9-161, looked up)
chain: B3 chain
B4: binds [5].
